The results in this text go back to patent US20040180380A1.

Some results are limits rather than exact numbers.

Experiment [1] has as its target antibody P1. Nature of the experiment: peptide competition ELISA; competitor for P1. (In an ELISA, binding on a coated surface is turned into a signal by an enzyme label.)
For experiment [2], the target named is antibody P1. The experiment is described as follows: peptide competition ELISA; reference EPAELTDA
Experiment [3] has as its target antibody C1. The experiment is described as follows: peptide competition ELISA; competitor for C1.
Experiment [4] has as its target antibody C1. The experiment is described as follows: peptide competition ELISA; reference YEVQGEVF
For experiment [5], the target named is antibody C1. The experiment is described as follows: peptide competition ELISA; free peptide competes with coated target peptide for C1.

B1: nearest-neighbor 8-mer EPVELTSA (peptide)
peptide: EPVELTSA
On to B1, for which the concentration for half-maximal inhibition (IC50) with antibody P1 [1] was above 1000 µM. This molecule also came in with a fold higher concentration (ineffective) than the antigen PET's half-maximum with antibody P1 [2] of 25000 fold.

B2: nearest-neighbor 8-mer YEVLGEEF (peptide)
peptide: YEVLGEEF
In turn, B2 gave an IC50 with antibody C1 [3] above 1000 µM. Moreover, the fold higher concentration (ineffective) than the antigen PET's half-maximum in the experiment with antibody C1 [4] was above 1000 fold.

B3: nearest-neighbor 8-mer VEVNGEVF (peptide)
peptide: VEVNGEVF
B3 yielded a half-inhibitory concentration (IC50) in the experiment with antibody C1 [3] above 1000 µM. The molecule further returned a fold higher concentration (ineffective) than the antigen PET's half-maximum with antibody C1 [4] above 1000 fold.

B4: CRP-derived 8-mer PET sequence YEVQGEVF (peptide)
peptide: YEVQGEVF
Turning to B4, in the experiment with antibody C1 [5], the IC50 worked out at 1 µM.

B5: nearest-neighbor 8-mer DPTQLTDA (peptide)
peptide: DPTQLTDA
B5 had an IC50 with antibody P1 [1] above 1000 µM. Also, the fold higher concentration (ineffective) than the antigen PET's half-maximum with antibody P1 [2] was found to be 25000 fold.

The IC50 is the point on the concentration scale where inhibition reaches its midpoint. A higher IC50 goes with weaker potency.
